In the supplement of paper PMC9170038:

Test system: MS2 coat protein
Test: apparent KD of MS2 coat protein; designed switch direction (-1 OFF switch, 1 ON switch): 1; higher = weaker reporter binding
Summary of the method: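 On Illumina chips, designed RNA switches with common flanks were made by stalled E. coli RNA polymerase. Titrations with SNAP-549-labelled MS2 coat protein, doubling from 0.7 or 1.5 nM to 3 µM, were done with no input, with 200 uM small-molecule ligand, or with an oligonucleotide input. Apparent KD is the median per design over clusters, from curve fits of normalised cluster fluorescence.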

[1] = input ligand: microRNA oligo, concentration not stated
[2] = Eterna round: R95, input ligand: FMN 200 uM
[3] = Eterna round: R95, input ligand: microRNA oligo, concentration not stated
[4] = Eterna round: R95, input ligand: none

| Sequence | apparent KD of MS2 coat protein (input ligand: FMN 200 uM) [nM] | apparent KD of MS2 coat protein [1] [nM] | apparent KD of MS2 coat protein (input ligand: none) [nM] | apparent KD of MS2 coat protein [2] [nM] | apparent KD of MS2 coat protein [3] [nM] | apparent KD of MS2 coat protein [4] [nM] |
| --- | --- | --- | --- | --- | --- | --- |
| GUGAAGAAUUAAGGAUAUCGAGUCAAGAUGUUAAACAUGAGGAUCACCCAUGUGGGUUGCGGUAUCGAGAAGGUAAAUUACAGG [salish99_SSNG2_r04_502] (Eterna round: R96, puzzle: Same State NG 2) | 25.9 | 21.1 | 31.7 |  |  |  |
| AUUAUUAGUGCAGGAUAUGAUUAACAUGAGGAUCACCCAUGUGGUGUUGUGAGUAAGGAGAGUGAUCAGAAGGGCAUUUUUUUU [JMF's solution 21] (Eterna round: R96, puzzle: Same State NG 2) | 659 | 333 | 406 |  |  |  |
| GUGGUGUAGAUACAGGAUAUGUUGCUCGUAACAUGAGGAUCACCCAUGUAUGUAUGAGAAUGAAUGCAGAAGGGUGCACACCACG [Mat - Same State 2 - Mod of UCT - D77] (puzzle: Same State 2) |  |  |  | 13.8 | 106 | 159 |
| GGUCCAGCCUGAGCUGGACAAAAGCAUGUACAUGAGGAUCACCCAUGUCAUGUACAAGCUUUUUGCUCGUCAUAAUG [Mat - hsa-mir-208a - 99] (puzzle: Sensor for hsa-mir-208a) |  |  |  | 713 | 18.6 | 806 |
| AUUUAACAAGCUUUUUGCUCGUCUUAUAAACAUGAGGAUCACCCAUGUAAUAGCGUGAGAGUAAUUAUUUAAAUAAU [JMF 94] (puzzle: Sensor for hsa-mir-208a) |  |  |  | 16.1 | 37.5 | 14.7 |
| UAAAUAAUGAUAGGAUAUACAUGAGGAAUCCUCGUAGAAGGAUCAUGACAUGAGGAUCACCCAUGUAACGCUCGAAAGAGCGUA [Mat - Same State NG 1 - JL mod - D44] (Eterna round: R96, puzzle: Same State NG 1) | 485 | 265 | 219 |  |  |  |
| UGUUGUAUUACAGGAUAUCUAUUAGCUUUAUUUAGAGAAGGGUAUUCACAUGAGGAUCACCCAUGUAUAUACGAGGAAGUUGUG [JMF's solution 88] (Eterna round: R96, puzzle: Same State NG 1) |  | 33.6 |  |  |  |  |
| UAUCUCAUGUAAGGAUAUGCAGCCGUUUCGGCUGCAGAAGGUACUAUAAUACAUGAGGAUCACCCAUGUCUCUAUUAUUUAGUU [JL SSNG1 1.45] (Eterna round: R96, puzzle: Same State NG 1) | 57.6 | 45.7 | 63.8 |  |  |  |
| CGGCGCUGUCGAGAGGAUAUGCGGUGAUGGACAUGAGGAUCACCCAUGUUAGCGAUAGCAUCACGGUAGAAGGCUCUUACGCCUG [Soteed Omei mod 23] (Eterna round: R96, puzzle: Same State 2) | 217 | 257 | 717 |  |  |  |
| UGGCUCAGACGAGGAUAUAUGUGGUCACAUGAGGAUCACCCAUGUCUCGAGCUUCGGCUCGAGGCAUAGAAGGCGUCUGAGCCA [SSNG2/5-A2] (Eterna round: R96, puzzle: Same State NG 2) | 1300 | 50.8 | 632 |  |  |  |
| CCGGCAAGUAUAGGAUAUCCCGCAACAGAAACGGGAGAAGGGUGCCAAACAUGAGGAUCACCCAUGUACACCGGAAAUAAAUAA [Lazaorra] (Eterna round: R96, puzzle: Same State NG 1) | 54.9 | 56.4 | 46.9 |  |  |  |
| GCCAACGCAUGAGGAUAUGGCACCUUAUUGGUGCCAGAAGGCAUGUCUAUUGACAUGAGGAUCACCCAUGUAUUAUAGUUGGCA [Fiskers NG1ss - 15] (Eterna round: R96, puzzle: Same State NG 1) | 114 | 369 | 882 |  |  |  |
| UGUUAACAUGAGGAUCACCCAUGUCAAAUGAAUGCAGGAUAUGGGAAGUAAUAAGAUAAACCAGAAGGGCAAGUUG [Altered State 1-17 - Jieux - Same State 1] (puzzle: Same State 1) |  |  |  | 49.4 | 162 | 311 |
| AGUCCAGCGAAAGCUGGACAGAAGCAUGUACAUGAGGAUCACCCAUGUUCAUGUACAAGCUUUUUGCUCGUCUUAAA [JL mod - D95 - 1] (puzzle: Sensor for hsa-mir-208a) |  |  |  | 476 | 14.9 | 418 |
| UCUUGGUUUUUGCUCGUUUUUUGUGUUGAACAUGAGGAUCACCCAUGUAUUGUACGGUCCAGUUUGAUAAUGGUCCG [JMF 34] (Eterna round: R96, puzzle: Sensor for hsa-mir-208a) | 35.2 | 13.3 | 40.2 |  |  |  |
| AUUUAACAAGCUUUUUGCUCGUCUUAUAAACAUGAGGAUCACCCAUGUAAUAGCGUGAGAGUAAAUUAAUAAAUAAU [JMF 83] (puzzle: Sensor for hsa-mir-208a) |  |  |  | 14.5 | 44.7 | 13.5 |
| UAGUUGGUGGUAGGAUAUGUAGGAUAUGGCGAGAGCUAAGCUUGGAAGUCACUUCAGCCAGAAGGACAGAAGGACCAGUAGCUU [pwkr ssNG2 2FMN + F9.10] (Eterna round: R96, puzzle: Same State NG 2) | 105 | 24.2 | 79.1 |  |  |  |
| UUAAAACAUGAGGAUCACCCAUGUAAUAAUAUGGGAGGAUAUCAGAAUGUAUGUAUGUAAUGAGAAGGCCUAAAUU [Mat - Same State 1 - Mod of Eli - D76] (puzzle: Same State 1) |  |  |  | 63.6 | 519 | 1280 |
| CUCCGGAAGCGAGGAUAUGCAGAGGAUCACCCUGCAGAAGGCGCAAAAGCGAGGAUAUGCAGAGGAUCACCCUGCAGAAGGCGC [pwkr ssNG DX.33] (Eterna round: R96, puzzle: Same State NG 1) | 10.2 | 33.3 | 39.9 |  |  |  |
| AGUCCAGCCUGAGCUGGACAAAAGCGUGUACAUGAGGAUCACCCAUGUUCAUGUACAAGCUUUUUGCUCGUCUUAAA [Zipper 52 - 6] (puzzle: Sensor for hsa-mir-208a) |  |  |  | 25.7 | 20 | 127 |
| CAAGCUUGGGUCGUCCCGCUCGUCUACAAACAUGAGGAUCACCCAUGUAUGCUCUUCGCAUCAAUUCUAUCUCUUGG [Quxeteor] (puzzle: Sensor for hsa-mir-208a) |  |  |  | 51.5 | 51.3 | 54.1 |
| GUGGUCAGACAUGAGGAUCACCCAUGUGGAAUAAAUAAGGAAAAGGAUAUCGAAUAUAGGAUAUACGAGAAGGUUUGGUUGGUG (Eterna round: R96, puzzle: Same State NG 3) |  | 73.6 |  |  |  |  |
| GUAGAUAUAGAGGAGGAUAUUCGAUGAGGAACAUGAGGAUCACCCAUGUAAGAGAGAGAUGAUGAGAAGAAGGCUUAGAGGGAUG [Altered State 2-4 - Jieux - Same State 2] (puzzle: Same State 2) |  |  |  | 25.1 | 35.8 | 36.4 |
